Experimental findings from US20220204643A1 (published 2022) are described below.

Experiment [1] deals with T1, geminin DNA replication inhibitor, transcript variant 1 (human, UniProt O75496 1-209).
T1 construct: on protein array; also called GMNN
T1 sequence: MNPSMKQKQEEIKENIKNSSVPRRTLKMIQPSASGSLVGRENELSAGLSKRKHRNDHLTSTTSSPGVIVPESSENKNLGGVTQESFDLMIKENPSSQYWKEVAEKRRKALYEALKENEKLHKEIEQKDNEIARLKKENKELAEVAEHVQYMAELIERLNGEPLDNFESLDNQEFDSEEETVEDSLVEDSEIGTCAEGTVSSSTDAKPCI
As to the kind of experiment: protein array.

Another experiment has as its target T2, DEAD-box helicase 18 (human, UniProt Q9NVP1 1-670).
T2 construct: on protein array; also called DDX18
T2 sequence: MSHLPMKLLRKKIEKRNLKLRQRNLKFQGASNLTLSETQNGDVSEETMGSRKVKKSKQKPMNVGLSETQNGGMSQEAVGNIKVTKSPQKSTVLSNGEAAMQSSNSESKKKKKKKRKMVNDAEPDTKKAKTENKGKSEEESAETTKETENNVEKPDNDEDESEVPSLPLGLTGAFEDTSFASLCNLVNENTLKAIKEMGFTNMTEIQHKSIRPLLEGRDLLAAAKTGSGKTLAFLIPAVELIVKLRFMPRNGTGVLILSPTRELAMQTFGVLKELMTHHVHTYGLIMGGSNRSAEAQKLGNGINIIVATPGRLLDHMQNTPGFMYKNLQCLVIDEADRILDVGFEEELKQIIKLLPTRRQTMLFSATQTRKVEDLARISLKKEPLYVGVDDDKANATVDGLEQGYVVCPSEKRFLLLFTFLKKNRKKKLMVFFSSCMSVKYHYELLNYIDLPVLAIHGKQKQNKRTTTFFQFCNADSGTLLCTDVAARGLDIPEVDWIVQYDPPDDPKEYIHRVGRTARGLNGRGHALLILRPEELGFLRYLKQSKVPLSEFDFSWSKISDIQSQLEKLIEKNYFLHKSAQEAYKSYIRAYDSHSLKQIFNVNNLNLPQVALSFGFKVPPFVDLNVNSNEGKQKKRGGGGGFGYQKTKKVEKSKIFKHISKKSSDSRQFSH
Put plainly: protein array.

Experiment [2] concerns the target T3, syntaxin 1A, transcript variant 1 (human, UniProt Q16623 1-288).
T3 construct: on protein array; also called STX1A
Put plainly: protein array.

For experiment [3], the target named is T4, methyltransferase like 21C (human, UniProt Q5VZV1 1-264).
T4 construct: HuProt array protein, full-length recombinant from yeast; also called METTL21C
T4 sequence (Q5VZV1 whole entry): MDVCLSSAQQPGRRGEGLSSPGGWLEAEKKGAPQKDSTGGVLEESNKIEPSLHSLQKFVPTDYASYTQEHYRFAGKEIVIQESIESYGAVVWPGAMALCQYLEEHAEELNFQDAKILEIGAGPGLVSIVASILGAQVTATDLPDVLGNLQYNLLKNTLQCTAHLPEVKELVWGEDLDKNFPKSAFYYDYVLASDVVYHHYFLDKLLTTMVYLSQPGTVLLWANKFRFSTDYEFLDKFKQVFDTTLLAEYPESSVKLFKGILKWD

Experiment [4] addresses T5, tripartite motif containing 35, transcript variant 1 (human, UniProt Q9UPQ4 1-493).
T5 construct: HuProt array protein, full-length recombinant from yeast; also called TRIM35
T5 sequence: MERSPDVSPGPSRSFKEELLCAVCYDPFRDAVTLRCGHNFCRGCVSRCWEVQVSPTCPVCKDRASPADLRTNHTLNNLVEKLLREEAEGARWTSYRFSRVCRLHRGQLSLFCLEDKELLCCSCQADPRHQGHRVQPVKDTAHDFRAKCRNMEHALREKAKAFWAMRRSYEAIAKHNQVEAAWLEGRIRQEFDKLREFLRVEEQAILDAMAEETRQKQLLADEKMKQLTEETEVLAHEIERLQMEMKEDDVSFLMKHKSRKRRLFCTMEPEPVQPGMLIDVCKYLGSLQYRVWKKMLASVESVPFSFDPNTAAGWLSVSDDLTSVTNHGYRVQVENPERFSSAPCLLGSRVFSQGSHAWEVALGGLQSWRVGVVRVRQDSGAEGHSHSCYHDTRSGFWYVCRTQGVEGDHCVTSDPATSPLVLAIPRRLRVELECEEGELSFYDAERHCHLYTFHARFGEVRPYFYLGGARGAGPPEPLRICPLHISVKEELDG

The target of the next experiment is T6, FMR1 autosomal homolog 2 (human, UniProt P51116 1-673).
T6 construct: HuProt array protein, full-length recombinant from yeast; also called FXR2
T6 sequence (P51116 whole entry Q252H): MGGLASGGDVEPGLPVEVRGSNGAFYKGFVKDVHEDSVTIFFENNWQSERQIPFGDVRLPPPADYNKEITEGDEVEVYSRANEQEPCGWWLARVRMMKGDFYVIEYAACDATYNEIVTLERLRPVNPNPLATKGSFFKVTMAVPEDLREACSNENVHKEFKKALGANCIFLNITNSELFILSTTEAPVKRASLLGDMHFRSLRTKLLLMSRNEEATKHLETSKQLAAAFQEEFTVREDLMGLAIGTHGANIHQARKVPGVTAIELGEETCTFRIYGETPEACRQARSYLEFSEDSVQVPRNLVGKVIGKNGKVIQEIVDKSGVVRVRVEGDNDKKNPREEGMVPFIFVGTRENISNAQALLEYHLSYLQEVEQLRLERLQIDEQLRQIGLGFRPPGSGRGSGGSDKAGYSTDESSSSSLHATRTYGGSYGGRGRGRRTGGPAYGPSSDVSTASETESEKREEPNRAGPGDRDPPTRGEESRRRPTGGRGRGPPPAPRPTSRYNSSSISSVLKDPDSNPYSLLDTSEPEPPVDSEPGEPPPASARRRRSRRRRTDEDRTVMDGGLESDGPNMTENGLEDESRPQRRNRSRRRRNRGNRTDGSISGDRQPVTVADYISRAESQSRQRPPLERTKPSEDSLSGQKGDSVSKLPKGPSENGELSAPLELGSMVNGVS

Experiment [5] concerns the target T7, Killer cell lectin like receptor g2 (human, UniProt A4D1S0 1-409).
T7 construct: HuProt array protein, full-length recombinant from yeast; also called KLRG2
T7 sequence: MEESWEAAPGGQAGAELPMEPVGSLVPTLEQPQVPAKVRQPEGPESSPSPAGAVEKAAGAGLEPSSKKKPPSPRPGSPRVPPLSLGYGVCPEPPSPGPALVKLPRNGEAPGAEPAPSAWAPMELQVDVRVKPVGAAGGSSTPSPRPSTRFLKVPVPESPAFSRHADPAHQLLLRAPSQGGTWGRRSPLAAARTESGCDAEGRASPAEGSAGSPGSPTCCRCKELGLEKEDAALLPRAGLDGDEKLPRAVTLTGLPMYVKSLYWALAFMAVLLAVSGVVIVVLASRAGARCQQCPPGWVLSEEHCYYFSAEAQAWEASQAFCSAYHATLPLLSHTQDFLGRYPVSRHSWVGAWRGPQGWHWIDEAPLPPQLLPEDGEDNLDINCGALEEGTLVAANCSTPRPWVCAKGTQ

For experiment [6], the target named is T8, family with sequence similarity 177 member A1, transcript variant 2 (human, UniProt Q8N128 1-213).
T8 construct: HuProt array protein, full-length recombinant from yeast; also called FAM177A1
T8 sequence: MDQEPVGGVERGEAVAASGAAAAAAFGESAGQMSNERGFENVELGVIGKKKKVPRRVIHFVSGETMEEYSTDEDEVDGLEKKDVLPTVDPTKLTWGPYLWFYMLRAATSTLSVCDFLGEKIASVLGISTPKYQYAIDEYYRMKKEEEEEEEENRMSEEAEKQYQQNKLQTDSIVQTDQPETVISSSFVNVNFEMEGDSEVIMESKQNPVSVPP

In another experiment the target is T9, annexin A1 (human, UniProt P04083 2-346).
T9 construct: HuProt array protein, full-length recombinant from yeast; printed 'annexin Al'; also called ANXA1
T9 sequence: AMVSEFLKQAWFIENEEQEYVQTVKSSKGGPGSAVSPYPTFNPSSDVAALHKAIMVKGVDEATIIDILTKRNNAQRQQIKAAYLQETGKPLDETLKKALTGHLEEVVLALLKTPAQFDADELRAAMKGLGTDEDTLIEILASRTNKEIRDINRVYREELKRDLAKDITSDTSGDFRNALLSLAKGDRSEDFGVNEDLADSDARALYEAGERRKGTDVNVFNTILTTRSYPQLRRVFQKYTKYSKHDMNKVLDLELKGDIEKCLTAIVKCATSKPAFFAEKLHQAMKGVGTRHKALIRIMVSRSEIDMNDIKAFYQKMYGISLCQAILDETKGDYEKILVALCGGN

Experiment [7] concerns the target T10, hook microtubule tethering protein 2, transcript variant 2 (human, UniProt Q96ED9 1-719).
T10 construct: HuProt array protein, full-length recombinant from yeast; also called HOOK2
T10 sequence: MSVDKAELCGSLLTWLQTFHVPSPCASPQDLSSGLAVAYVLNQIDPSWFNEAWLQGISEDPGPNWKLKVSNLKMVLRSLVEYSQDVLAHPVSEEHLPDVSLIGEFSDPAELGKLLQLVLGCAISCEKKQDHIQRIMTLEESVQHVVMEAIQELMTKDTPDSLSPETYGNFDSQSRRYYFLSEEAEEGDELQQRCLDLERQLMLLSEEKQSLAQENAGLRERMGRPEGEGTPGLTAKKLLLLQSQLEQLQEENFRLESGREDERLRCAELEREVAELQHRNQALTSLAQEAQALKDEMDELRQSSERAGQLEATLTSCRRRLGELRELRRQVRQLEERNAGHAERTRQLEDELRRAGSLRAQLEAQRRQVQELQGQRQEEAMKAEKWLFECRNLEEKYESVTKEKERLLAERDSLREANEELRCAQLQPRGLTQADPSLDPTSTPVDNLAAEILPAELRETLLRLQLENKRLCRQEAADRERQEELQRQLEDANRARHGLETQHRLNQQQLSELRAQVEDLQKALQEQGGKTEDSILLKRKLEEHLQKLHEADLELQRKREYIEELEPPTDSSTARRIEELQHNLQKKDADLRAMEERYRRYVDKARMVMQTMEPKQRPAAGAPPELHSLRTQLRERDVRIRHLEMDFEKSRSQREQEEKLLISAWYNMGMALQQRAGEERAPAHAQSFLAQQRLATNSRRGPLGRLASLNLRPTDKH

Experiment [8] concerns the target T11, hydroxymethylbilane synthase, transcript variant X3 (human, UniProt P08397 18-361).
T11 construct: HuProt array protein, full-length recombinant from yeast; also called HMBS
T11 sequence: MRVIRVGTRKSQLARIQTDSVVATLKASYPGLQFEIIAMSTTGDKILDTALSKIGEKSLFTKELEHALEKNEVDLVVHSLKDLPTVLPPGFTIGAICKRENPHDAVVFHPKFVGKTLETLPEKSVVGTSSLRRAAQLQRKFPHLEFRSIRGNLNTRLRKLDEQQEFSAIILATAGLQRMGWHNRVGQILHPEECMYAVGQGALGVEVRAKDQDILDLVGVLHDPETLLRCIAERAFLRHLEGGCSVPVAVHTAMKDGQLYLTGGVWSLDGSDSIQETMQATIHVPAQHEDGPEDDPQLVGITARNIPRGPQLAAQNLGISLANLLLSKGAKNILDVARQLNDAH

T3 sequence (Q16623 whole entry, change not shown): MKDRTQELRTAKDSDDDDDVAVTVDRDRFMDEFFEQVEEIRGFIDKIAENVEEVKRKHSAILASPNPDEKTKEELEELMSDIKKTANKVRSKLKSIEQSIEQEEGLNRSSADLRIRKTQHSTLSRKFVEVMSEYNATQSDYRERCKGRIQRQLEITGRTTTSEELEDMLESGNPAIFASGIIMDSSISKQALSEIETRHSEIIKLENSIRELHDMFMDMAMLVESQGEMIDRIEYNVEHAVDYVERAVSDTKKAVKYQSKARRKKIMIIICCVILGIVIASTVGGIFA

B1: TBRE1027 (antibody, V domains shown)
VH: EVQLLESGGGLVQPGGSLRLSCAASGFTFSSYAMSWVRQAPGKGLEWVSTISGSGHSTYYADSVKGRFTISRDNSKNTLYLQMNSLRAEDTAVYYCAKSTLGGGFDFWGQGTLVTVSS
VL: DIQMTQSPFSLSASVGDRVTITCRASQSISSYLNWYQQKPGKAPKLLIYAASSLQSGVPSRFSGSGSGTDFTLTISSLQPEDFATYYCHQSYSTSLTFGGGTKVEIKR
notes: VH/VL only
For B1, the binding result (in experiment [1]; with DEAD-box helicase 18; in experiment [2]) was “binds” throughout.

B2: TLUS1003 (antibody, V domains shown)
VH: QVHLVQSGSEFKKPGASVKISCKTSGYTFTNYAMNWVRQAPGQGLEWVGWINTVTGIPGYAQGFTGRFIISLDTSGRTSYLQINSLQAEDTAVYYCARSGGFGWSRDLDYWGQGTLVTVSS
VL: DIVLTQSPLSLPVTPGEPASISCRSSQSLLHSNGVYYLDWYLLKPGQSPQLVIYMGSSRASGVPDRFSGSGSGTDFRLKISRVEAEDVGIYYCMQALQTPWTFGQGTKVEIKR
notes: detected with anti-human IgG Fc
Turning to B2, the binding result in [3] is recorded as “binds”.

B3: TLUA1001 (antibody, V domains shown)
VH: PLQLQESGPGLVKPSETLSLTCSVSGGSIRSSAPFWGWIRQPPGKGLEWIGNIYYNGDTSYSPSLENRVTLFVDTSKNQFSLNLTSVTAADTAVYYCGRIMTPSIDLWGQGKLVTVSS
VL: EIVLTQSPGTLSLSPGERATLSCRASQSISSTYLVWYQQKPGQAPRLLIYAASYRATGIPDRFSGSGSGTDFILTISRLEPEDFAVYYCQQYGSSLTFGGGTKVEIKR
notes: as for B2
Consider B3, for which the binding result (in experiment [4]; with FMR1 autosomal homolog 2; in experiment [5]) was “binds” throughout.

B4: TLUA1016 (antibody, V domains shown)
VH: EVQLLESGGALVQPGGSLRLSCAVSGLTFNRFAMTWVRQAPGKGLEWVSHIGGSGGYTYYADSVKGRFTISRDNSKNTLYLQMNSLRAEDTAVYHCVKLKGIGAMWTYAMDVWGQGTTVTVSS
VL: QSVLTQPPSVSGAPGQRVTIPCTGSSSNLGAGYAVHWYQQLPATTPKLLIYANSSRPSGVPDRFSGSRSDTSASLAITGLQAEDEADYYCQSYDSSLSGYVFGTGTWVTVLS
notes: as for B2
For B4, the binding result in [6] was “binds”.

B5: TLUA1004 (antibody, V domains shown)
VH: EVQLVESGGGLVQTGGSLRLSCSASGFTFNNYWMHWVRQAPGKGLLWLSRINTDGSRGHYDDSVQGRFTISRDNAKQTVYLQMDGLRAEDTAVYFCARDGYDFRAFDHWGQGVLVTVSS
VL: DIQMTQSPSSLSASVGDKVTMTCRASQFISVYVNWYQQKPGKAPKLLIYTASSLESGVSSRFSGGGSGTDFTLTIRSLQPEDFAIYYCQQTYSTPWTFGPGTRVEIKR
notes: as for B2
For B5, the binding result in the experiment with annexin A1 is recorded as “binds”.

B6: TLUS1006 (antibody, V domains shown)
VH: PVHLVQSGAEVRKPGSSVKVSCMASGGSFNTYAVNWVRQAPGQGLEWMGGIIPVFGTTNYAPRFQGRVTITADESTSTVYMELTSLTSEDTAVYYCARDRDSGYERNCLDPWGQGTLVTVSS
VL: DIVMTQSPDSLAVTLGERATINCRSSQTVLYDSNNKNYLAWYQQKPGQPPKLLIYWASIRESGVPDRFSGSGSGTDFTLTINTLQAEDVAIYFCQQYFTTPRTFGQGTKVEIKR
notes: as for B2
As for B6, the binding result in experiment [7] and in experiment [8] was “binds” in each case.
